According to patent US20170298146A1 (MODIQUEST B V, published 2017):
Non-standard residues stand in square brackets, D forms with d. No end group written: not given here. Cit = NC(=O)NCCC[C@H](N)C(=O)O

Legend:
[1] = target: T1, Histone 2A citrulline-containing peptide 6 (human, also: biotin label); experiment: peptide ELISA, 0.08 ug/well
T1 peptide: VHRLL[Cit]KGNYSE
Description: (§1) Biotin and citrulline-containing peptides derived from histone 2A were immobilized on NEUTRAVIDIN®-coated 96-well ELISA plates (0.3 μg/well). CFC-1 and CFC-0 were coated at the same concentration and served as positive and negative controls respectively for specific anti-citrulline reactivity and as coating controls. Non-coated wells were used to test for aspecific binding of the antibodies. […] Detection of bound anti-citrulline antibodies was performed by incubating the wells with rabbit-anti-human-HRP (1:2000) for one hour at RT followed by incubation with TMB substrate. The resulting OD (y-axis) is a measure for antibody binding.
(§2) Ninety-six-well ELISA plates were coated with NEUTRAVIDIN® (0.1 μg/well) by overnight incubation at 4° C. Wells were washed five times with PBS-TWEEN®-20 (PBS-T) and blocked by a one-hour incubation with PBS-T+1% Bovine serum albumin (BSA) at room temperature (RT). After five more washes with PBS-T, wells were incubated for one hour at RT with histone-derived citrulline and biotin-containing peptides (0.3 μg/well). […] Wells were washed five times with PBS-T and incubated with rabbit-anti-human-HRP (1:2000) for one hour at RT followed by five washes with PBS-T and three wash steps with PBS. Wells were incubated for five minutes with TMB substrate before stopping the reaction with 2 M H₂SO₄. Optical density was measured by 450 nm and is a measure for the affinity of the antibodies used.

[2] = target: T2, Histone 2A citrulline-containing peptide 9 (human, also: biotin label); experiment: peptide ELISA, 0.08 ug/well
T2 peptide: DNKKT[Cit]IIPRHL
Description: as §1, §2

[3] = target: T3, CFC-1; experiment: peptide ELISA, 0.08 ug/well
T3 construct: Positive control for anti-citrulline reactivity; also called cfc1 XG
Description: as §1, §2

[4] = target: T4, Histone 2A citrulline-containing peptide 11 (human, also: biotin label); experiment: peptide ELISA, 0.08 ug/well
T4 peptide: LQLAI[Cit]NDEELN
Description: as §1, §2

[5] = target: T5, Histone 2A citrulline-containing peptide 2 (human, also: biotin label); experiment: peptide ELISA, 0.08 ug/well
T5 peptide: AKAKS[Cit]SSRAGL
Description: as §1, §2

[6] = target: T6, human recombinant histone H2B (human); experiment: ELISA, 0.0032 ug/well
T6 construct: Non-deiminated
Description: as §1, with “Deiminated, as well as non-deiminated histones,” for “Biotin and citrulline-containing peptides derived from histone 2A”, “on” for “on NEUTRAVIDIN®-coated”, “controls, respectively,” for “controls respectively”, “binding. H1=recombinant histone 1; H1/p2=huPAD2 recombinant histone 1; H1/p4=huPAD4 recombinant histone 1 and so forth (x-axis).” for “binding.”

[7] = target: T3, CFC-1; experiment: ELISA, 0.0032 ug/well
Description: as §1, with “Deiminated, as well as non-deiminated histones,” for “Biotin and citrulline-containing peptides derived from histone 2A”, “on” for “on NEUTRAVIDIN®-coated”, “controls, respectively,” for “controls respectively”, “binding. H1=recombinant histone 1; H1/p2=huPAD2 recombinant histone 1; H1/p4=huPAD4 recombinant histone 1 and so forth (x-axis).” for “binding.”

[8] = target: T7, huPAD2 deiminated human recombinant histone H2A (human); experiment: ELISA, 0.0032 ug/well
T7 construct: also called H2A/p2
Description: as §1, with “Deiminated, as well as non-deiminated histones,” for “Biotin and citrulline-containing peptides derived from histone 2A”, “on” for “on NEUTRAVIDIN®-coated”, “controls, respectively,” for “controls respectively”, “binding. H1=recombinant histone 1; H1/p2=huPAD2 recombinant histone 1; H1/p4=huPAD4 recombinant histone 1 and so forth (x-axis).” for “binding.”

[9] = target: T8, huPAD4 deiminated human recombinant histone H3 (human); experiment: ELISA, 0.0032 ug/well
T8 construct: also called H3/p4
Description: as §1, with “Deiminated, as well as non-deiminated histones,” for “Biotin and citrulline-containing peptides derived from histone 2A”, “on” for “on NEUTRAVIDIN®-coated”, “controls, respectively,” for “controls respectively”, “binding. H1=recombinant histone 1; H1/p2=huPAD2 recombinant histone 1; H1/p4=huPAD4 recombinant histone 1 and so forth (x-axis).” for “binding.”

[10] = target: T9, huPAD4 deiminated human recombinant histone H2A (human); experiment: ELISA, 0.0032 ug/well
T9 construct: also called H2A/p4; huPAD4 deiminated histone 2A
Description: as §1, with “Deiminated, as well as non-deiminated histones,” for “Biotin and citrulline-containing peptides derived from histone 2A”, “on” for “on NEUTRAVIDIN®-coated”, “controls, respectively,” for “controls respectively”, “binding. H1=recombinant histone 1; H1/p2=huPAD2 recombinant histone 1; H1/p4=huPAD4 recombinant histone 1 and so forth (x-axis).” for “binding.”

[11] = target: T10, huPAD4 deiminated human recombinant histone H2B (human); experiment: ELISA, 0.0032 ug/well
T10 construct: also called H2B/p4
Description: as §1, with “Deiminated, as well as non-deiminated histones,” for “Biotin and citrulline-containing peptides derived from histone 2A”, “on” for “on NEUTRAVIDIN®-coated”, “controls, respectively,” for “controls respectively”, “binding. H1=recombinant histone 1; H1/p2=huPAD2 recombinant histone 1; H1/p4=huPAD4 recombinant histone 1 and so forth (x-axis).” for “binding.”

[12] = target: human recombinant histone H4 (human, UniProt P62805 2-103); experiment: ELISA, 0.0032 ug/well
Description: as §1, with “Deiminated, as well as non-deiminated histones,” for “Biotin and citrulline-containing peptides derived from histone 2A”, “on” for “on NEUTRAVIDIN®-coated”, “controls, respectively,” for “controls respectively”, “binding. H1=recombinant histone 1; H1/p2=huPAD2 recombinant histone 1; H1/p4=huPAD4 recombinant histone 1 and so forth (x-axis).” for “binding.”

[13] = target: T11, huPAD2 deiminated human recombinant histone H3 (human); experiment: ELISA, 0.0032 ug/well
T11 construct: also called H3/p2
Description: as §1, with “Deiminated, as well as non-deiminated histones,” for “Biotin and citrulline-containing peptides derived from histone 2A”, “on” for “on NEUTRAVIDIN®-coated”, “controls, respectively,” for “controls respectively”, “binding. H1=recombinant histone 1; H1/p2=huPAD2 recombinant histone 1; H1/p4=huPAD4 recombinant histone 1 and so forth (x-axis).” for “binding.”

[14] = target: T12, huPAD2 deiminated human recombinant histone H2B (human); experiment: ELISA, 0.0032 ug/well
T12 construct: also called H2B/p2
Description: as §1, with “Deiminated, as well as non-deiminated histones,” for “Biotin and citrulline-containing peptides derived from histone 2A”, “on” for “on NEUTRAVIDIN®-coated”, “controls, respectively,” for “controls respectively”, “binding. H1=recombinant histone 1; H1/p2=huPAD2 recombinant histone 1; H1/p4=huPAD4 recombinant histone 1 and so forth (x-axis).” for “binding.”

[15] = target: T13, Histone 2A citrulline-containing peptide 5 (human, also: biotin label); experiment: peptide ELISA, 2 ug/well
T13 peptide: VGRVH[Cit]LLRKGN
Description: as §1, §2

[16] = target: T1, Histone 2A citrulline-containing …; experiment: peptide ELISA, 2 ug/well
Description: as §1, §2

[17] = target: T14, Histone 2A citrulline-containing peptide 12 (human, also: biotin label); experiment: peptide ELISA, 2 ug/well
T14 peptide: NKLLG[Cit]VTIAQG
Description: as §1, §2

[18] = target: T2, Histone 2A citrulline-containing …; experiment: peptide ELISA, 2 ug/well
Description: as §1, §2

[19] = target: T15, Histone 2A citrulline-containing peptide 8 (human, also: biotin label); experiment: peptide ELISA, 2 ug/well
T15 peptide: AGNAA[Cit]DNKKTR
Description: as §1, §2

[20] = target: T3, CFC-1; experiment: peptide ELISA, 2 ug/well
Description: as §1, §2

[21] = target: T4, Histone 2A citrulline-containing …; experiment: peptide ELISA, 2 ug/well
Description: as §1, §2

[22] = target: T16, Histone 2A citrulline-containing peptide 1 (human, also: biotin label); experiment: peptide ELISA, 2 ug/well
T16 construct: also called AAASGXGKQGGK
T16 peptide: AAASG[Cit]GKQGGK
Description: as §1, §2

[23] = target: T17, Histone 2A citrulline-containing peptide 7 (human, also: biotin label); experiment: peptide ELISA, 2 ug/well
T17 peptide: GNYSE[Cit]VGAGAP
Description: as §1, §2

[24] = target: T18, Histone 2A citrulline-containing peptide 4 (human, also: biotin label); experiment: peptide ELISA, 2 ug/well
T18 peptide: QFPVG[Cit]VHRLLR
Description: as §1, §2

[25] = target: T19, Histone 2A citrulline-containing peptide 10 (human, also: biotin label); experiment: peptide ELISA, 2 ug/well
T19 peptide: TRIIP[Cit]HLQLAI
Description: as §1, §2

[26] = target: T20, Histone 2A citrulline-containing peptide 3 (human, also: biotin label); experiment: peptide ELISA, 2 ug/well
T20 peptide: KSRSS[Cit]AGLQFP
Description: as §1, §2

B1: RhmAb2.102 (antibody, human IgG1, lambda)
heavy: not shown
light: QSVLTQPPSMSAAPGQKVTISCSGSSSNIGNNYVSWYQQVPGTAPKLLIYDDNKRPSGIPGRFSGSKSATSATLGITGLQAGDEADYYCGSWDDNLSVVLFGGGTKLTVLGQPKAAPSVTLFPPSSEELQANKATLVCLISDFYPGAVTVAWKADSSPVKAGVETTTPSKQSNNKYAASSYLSLTPEQWKSHRSYSCQVTHEGSTVEKTVAPTECS
notes: Human IgG1 lambda; also called Rhm2.102
Q: Which OD [1] does the source give for B1 here?
A: 0.123 OD

Q: What about the OD [2] of the same binder?
A: 0.06 OD

Q: And the OD [3]?
A: 2.66 OD

Q: What about the OD [4] of the same binder?
A: 0.064 OD

Q: What about the OD [5] of the same binder?
A: 0.086 OD

Q: And the OD [6]?
A: 0.05 OD

Q: And the OD [7]?
A: 0.178 OD

Q: And the OD [8]?
A: 0.161 OD

Q: What about the OD [9] of the same binder?
A: 0.065 OD

Q: And the OD [10]?
A: 0.135 OD

Q: And the OD [11]?
A: 0.052 OD

Q: What about the OD [12] of the same binder?
A: 0.06 OD

Q: What about the OD [13] of the same binder?
A: 0.08 OD

Q: What about the OD [14] of the same binder?
A: 0.052 OD

Q: What about the OD [15] of the same binder?
A: 0.111 OD

Q: And the OD [16]?
A: 0.752 OD

Q: What about the OD [17] of the same binder?
A: 0.067 OD

Q: And the OD [18]?
A: 0.063 OD

Q: What about the OD [19] of the same binder?
A: 0.06 OD

Q: What about the OD [20] of the same binder?
A: 3.21 OD

Q: What about the OD [21] of the same binder?
A: 0.067 OD

Q: And the OD [22]?
A: 3.05 OD

Q: What about the OD [23] of the same binder?
A: 0.059 OD

Q: And the OD [24]?
A: 1.3 OD

Q: And the OD [25]?
A: 0.07 OD

Q: And the OD [26]?
A: 0.286 OD
